# B1: Retinoblastoma-associated protein (Homo sapiens), P06400 (parent)
# chain: MPPKTPRKTAATAAAAAAEPPAPPPPPPPEEDPEQDSGPEDLPLVRLEFEETEEPDFTALCQKLKIPDHVRERAWLTWEKVSSVDGVLGGYIQKKKELWGICIFIAAVDLDEMSFTFTELQKNIEISVHKFFNLLKEIDTSTKVDNAMSRLLKKYDVLFALFSKLERTCELIYLTQPSSSISTEINSALVLKVSWITFLLAKGEVLQMEDDLVISFQLMLCVLDYFIKLSPPMLLKEPYKTAVIPINGSPRTPRRGQNRSARIAKQLENDTRIIEVLCKEHECNIDEVKNVYFKNFIPFMNSLGLVTSNGLPEVENLSKRYEEIYLKNKDLDARLFLDHDKTLQTDSIDSFETQRTPRKSNLDEEVNVIPPHTPVRTVMNTIQQLMMILNSASDQPSENLISYFNNCTVNPKESILKRVKDIGYIFKEKFAKAVGQGCVEIGSQRYKLGVRLYYRVMESMLKSEEERLSIQNFSKLLNDNIFHMSLLACALEVVMATYSRSTSQNLDSGTDLSFPWILNVLNLKAFDFYKVIESFIKAEGNLTREMIKHLERCEHRIMESLAWLSDSPLFDLIKQSKDREGPTDHLESACPLNLPLQNNHTAADMYLSPVRSPKKKGSTTRVNSTANAETQATSAFQTQKPLKSTSLSLFYKKVYRLAYLRLNTLCERLLSEHPELEHIIWTLFQHTLQNEYELMRDRHLDQIMMCSMYGICKVKNIDLKFKIIVTAYKDLPHAVQETFKRVLIKEEEYDSIIVFYNSVFMQRLKTNILQYASTRPPTLSPIPHIPRSPYKFPSSPLRIPGGNIYISPLKSPYKISEGLPTPTKMTPRSRILVSIGESFGTSEKFQKINQMVCNSDRVLKRSAEGSNPPKPLKKLRFDIEGSDEADGSKHLPGESKFQQKLAEMTSTRTRMQKQKMNDSMDTSNKEEK
# Variants of: B1
# Conditions: with e2f1_human E2F1, Q01094
# Chain of e2f1_human E2F1, Q01094 (Q01094 whole entry): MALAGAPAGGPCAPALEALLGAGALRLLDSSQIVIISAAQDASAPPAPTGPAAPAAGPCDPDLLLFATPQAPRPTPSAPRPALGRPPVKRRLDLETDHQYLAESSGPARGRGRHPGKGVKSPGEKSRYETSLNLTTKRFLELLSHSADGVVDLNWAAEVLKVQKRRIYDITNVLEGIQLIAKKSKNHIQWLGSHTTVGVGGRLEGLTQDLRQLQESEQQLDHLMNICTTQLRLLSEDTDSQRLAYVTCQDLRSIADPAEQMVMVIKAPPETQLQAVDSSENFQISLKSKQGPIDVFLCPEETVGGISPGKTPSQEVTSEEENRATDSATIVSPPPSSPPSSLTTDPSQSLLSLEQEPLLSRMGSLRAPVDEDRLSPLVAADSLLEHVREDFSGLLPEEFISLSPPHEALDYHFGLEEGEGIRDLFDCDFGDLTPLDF
row,effect of a mutation on the interaction,Variant
1,decreasing interaction,S612A
